The source of these data is patent publication US20260139048A1 (NANJING LEGEND BIOTECH, published 2026).

To fix the notation:
B1: Hu1217-2-2 (anti-TIGIT positive control antibody) (antibody, V domains shown)
VH: EVQLVESGGGLVQPGGSLRLSCAASGFTFSDYYMYWVRQAPGKGLEWVAYITKGGGSTYYPDSVKGRFTISRDNAKNTLYLQMNSLRAEDTAVYYCARQTNYDFTMDYWGQGTLVTVSS
VL: EIVMTQSPATLSVSPGERATLSCKASQDVGTSVAWYQQKPGQAPRLLIYWASARHTGIPARFSGSGSGTEFTLTISSLQSEDFAVYYCQQYSSYPLTFGGGTKVEIK
B2: TIGIT-18 chimeric antibody (antibody, human IgG1, kappa, V domains shown)
VH: QVQLQQPGAELVRPGASVKLSCKASGYSFTSYWMNWVKQRPGQGHEWIGMIHLSNSETRLNQNFLDKATLTVDKSSSTVYLQLSSPTSEDSAVYYCARERDYYGSSYFDYWGQGTTLTVSS
VL: DIVMTQSPASLVVSLGQRATISCRTSQSVSTSSYSYMHWYQQKPGQPPKLLIKNASNLESGVPARFSASGSGTDFTLNIHPVEEEDAATYYCQHSWEIPRTFGGGTKLEIKR
notes: Full-length chimeric IgG1 kappa
B3: TIGIT-52 chimeric antibody (antibody, human IgG1, kappa, V domains shown)
VH: EVQLVESGGGLVEPGGSLTLSCVASGFTFSSFAMSWVRQTPEKRLEWVATISNGGSYTYYPDTVKGRFTISRDNAKNTLFLQMSSLRSEDTAMYYCARPYYGTTYGYYFDFWGQGTTLTVSS
VL: QIVLTQSPASLAVSLGQRATISCRASESVDRNGNSFMHWYQQKPGQPPKLLIYLASNLESGVPARFSGSGSRTDFTLTIDPVEADDAATYYCQQNNEDPLTFGAGTKLELKR
notes: as for B2
B4: TIGIT-100 chimeric antibody (antibody, human IgG1, kappa, V domains shown)
VH: QVQLQQPGPELVKPGASVKISCKASGYSFTDYNMNWVKQSNGKSLEWIGVINPNSGTDNYNQKFKGKATLTVDQSSSTAYMQLNSLTSEDSAVYFCARGVYFGNYFDSWGQGTTLTVSS
VL: DIVMTQSPASLSASVGETVTITCRASENIYSSLAWYQQKQGKSPQLLVFNAKTLTEGVPSRFSGSGSGTQFSLKINSLQPEDFGSYYCQHHYGAPWTFGGGTKLEIKR
notes: as for B2
B5: TIGIT-63 chimeric antibody (antibody, human IgG1, kappa, V domains shown)
VH: DVQLVESGGGLVQPGGSLSLSCAASGFTFTDYYMNWVRQPPGKALEWLGFIRNKANGYTTEYSASVKGRFTISRDNSQSILYLQMNALRAEDSATYYCARSTAWYFDVWGTGTTLTVSS
VL: DIQMTQSPASLSASVGGTVTITCRASEHIYSYLAWYQQKQGKSPQLLVYNAKTLAEGVPSRFSGSGSGTQFSLKINSLQPKDFGSYYCQHHYGNPLTFGAGTKLELKR
notes: as for B2
B6: TIGIT-87 chimeric antibody (antibody, human IgG1, kappa, V domains shown)
VH: EVKLVESGPELVKPGASMKISCKASGYSFTGYTMNWVKQSHGKNLEWIGLINPYNGGTSYNQKFKGKATLTVDKSSSTAYMELLSLTSEDSAVYYCARYANRFENWFAYWGQGTLVTVSS
VL: B4 VL with V3Q, S32Y, F49Y, T55A, A94T
notes: as for B2
B7: reshaped TIGIT-3 antibody 3VH3 + 3VL1.M3 (antibody, V domains shown)
VH: EVQLVESGGGLVQPGGSLRLSCAASGFTFSSYGMSWVRQAPGKGLELVATIKSDGGSTNLPDSVKGRFTISRDNSKNTLYLQMNSLRAEDTAVYYCVRGYFDYWGQGTTVTVSS
VL: DIQMTQSPSSLSASVGDRVTITCKASQDVKTAVAWYQQKPGKVPKLLIYWASTRHSGVPSRFSGSGSGTDFTLTISSLQPEDVATYYCQQYYSTPYTFGGGTKVEIK
notes: Full-length IgG, tested as HEK293 supernatant
B8: reshaped TIGIT-3 antibody 3VH3 + 3VL1.M4 (antibody, V domains shown)
VH: B7 VH
VL: B7 VL with H55Q
notes: as for B7
B9: reshaped TIGIT-3 antibody 3VH3 + 3VL1.M1 (antibody, V domains shown)
VH: B7 VH
VL: B7 VL with K24R, V29I, V33L, A51S, S56T
notes: as for B7

Residue numbers refer to the chain shown, from its start. Bounds are passed on as bounds.

T4 sequence (A0A7N9I9V4 entry or part of it): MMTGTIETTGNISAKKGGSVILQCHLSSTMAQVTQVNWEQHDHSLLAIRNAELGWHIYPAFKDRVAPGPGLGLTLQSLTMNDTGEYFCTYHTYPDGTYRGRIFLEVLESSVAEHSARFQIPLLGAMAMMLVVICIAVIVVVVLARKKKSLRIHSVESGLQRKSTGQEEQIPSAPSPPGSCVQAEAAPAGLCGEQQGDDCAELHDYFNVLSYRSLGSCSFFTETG

The first assay addresses T1, TIGIT on TIGIT-over expressing NFAT-Luc/Jurkat effector cells (GenScript reporter cell line) (UniProt Q495A1 22-244, limits assumed).
T1 sequence (looked up): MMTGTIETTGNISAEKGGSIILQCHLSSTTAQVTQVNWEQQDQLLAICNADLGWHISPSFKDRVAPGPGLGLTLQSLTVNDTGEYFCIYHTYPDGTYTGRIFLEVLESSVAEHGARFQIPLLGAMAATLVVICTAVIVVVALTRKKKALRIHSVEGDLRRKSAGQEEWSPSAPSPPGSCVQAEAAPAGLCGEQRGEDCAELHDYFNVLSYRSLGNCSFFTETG
Kind of assay: cell-based or functional assay.
The EC50 is the midpoint of the concentration-response curve. High values mean a less potent agent, low ones a more potent agent. As to B1, the “Bottom (RLU)” value came to 10500 RLU, a half-maximal effect (EC50) was put at 15.6 nM and the “Top (RLU)” value was 51700 RLU.

Consider B2, for which the “Bottom (RLU)” value worked out at 10400 RLU, the “EC50” value was determined as 31.3 nM and the “Top (RLU)” value was determined as 50600 RLU.

For B3, the “Bottom (RLU)” value came out at 11800 RLU, the “EC50” value is above 100 nM and the “Top (RLU)” value is 14200 RLU.

Consider B4, for which the “Bottom (RLU)” value came to 4520 RLU, the “EC50” value is above 100 nM and the “Top (RLU)” value stood at 11700 RLU.

For B5, the “Bottom (RLU)” value came out at 11200 RLU, the “EC50” value came out at 46.8 nM and the “Top (RLU)” value came to 28700 RLU.

As for B6, the “Bottom (RLU)” value came to 9300 RLU, the “EC50” value is above 100 nM and the “Top (RLU)” value amounted to 17000 RLU.

In the next assay the target is T1, TIGIT on TIGIT-over expressing …. The assay is described as follows: cell-based or functional assay. The source holds these as a separate data set.
In the case of B1, the “Bottom (RLU)” value was 52900 RLU, the “EC50” value came out at 11.1 nM and the “Top (RLU)” value was determined as 163000 RLU.

For the next assay, the target named is T2, human TIGIT expressed on CHO-K1 cells (human, UniProt Q495A1 22-244).
T2 construct: whole, on cells; also called human TIGIT-CHO-K1 cells; human TIGIT over-expressing cell line
T2 sequence (looked up): T1 sequence (looked up)
The assay is described as follows: flow cytometry on CHO-K1 cells expressing human TIGIT. For orientation: A flow cytometer gives signals particle by particle.
As for B1, the EC50 stood at 0.46 nM.

As to B2, the EC50 came to 0.76 nM.

The molecule B3 showed an EC50 of 8.43 nM.

Consider B4, for which the 50% effective concentration (EC50) came to 0.55 nM.

Turning to B5, the concentration giving a half-maximal response (EC50) came to 1.12 nM.

For B6, a half-maximal effect (EC50) was put at 0.4 nM.

The target of the next assay is T2, human TIGIT expressed on CHO-K1 cells. Described as above. The source holds these as a separate data set.
As to B1, the EC50 is 0.65 nM.

A further assay deals with T3, His-tagged human TIGIT (human, UniProt Q495A1 22-141).
T3 construct: SPR analyte; also called human TIGIT protein; not shown: His tag
T3 sequence: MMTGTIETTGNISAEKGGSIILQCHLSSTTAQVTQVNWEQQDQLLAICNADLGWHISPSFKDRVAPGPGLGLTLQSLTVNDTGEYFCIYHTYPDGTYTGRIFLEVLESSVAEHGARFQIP
The assay is described as follows: SPR experiment 3, IgG from HEK293 supernatant captured.
By Kd is commonly meant the concentration at which binding is half-saturated. Read a low Kd as higher affinity. As a reminder, the koff is the rate constant with which the complex falls apart. A high value points to fast dissociation. As usually defined, the kon is the rate constant with which the complex forms. Low readings indicate slow association, high ones fast association. In the case of B7, binding was characterised by a dissociation constant (Kd) of 46 nM, the koff was 0.0089 s⁻¹ and the kon was 190000 M⁻¹ s⁻¹.

Turning to B8, the Kd is 55 nM, the koff is 0.012 s⁻¹ and the kon amounted to 230000 M⁻¹ s⁻¹.

Regarding B9, the Kd came to 17 nM, the koff stood at 0.0038 s⁻¹ and the kon was determined as 230000 M⁻¹ s⁻¹.

A further assay has as its target T4, cynomolgus TIGIT expressed on CHO-K1 cells (cynomolgus, UniProt A0A7N9I9V4 89-312).
T4 construct: whole, on cells; also called cynomolgus TIGIT over-expressing cell line
Kind of assay: flow cytometry on CHO-K1 cells expressing cynomolgus TIGIT.
Molecule B2 yielded an EC50 of 1.45 nM.

With B3, it took 7.68 nM to reach a half-maximal effect (EC50).

For B5, the EC50 worked out at 1.92 nM.

As to B6, a half-maximal effect (EC50) was put at 0.81 nM.

A further assay deals with T4, cynomolgus TIGIT expressed on CHO-K1 …. The assay is described as above. The source holds these as a separate data set.
B1: the EC50 was found to be 43 nM.

Another assay addresses T3, His-tagged human TIGIT. The assay is described as follows: SPR (Biacore T200), antibody captured, His-tagged TIGIT analyte.
B1 registered a Kd of 0.11 nM, a koff of 0.00013 s⁻¹ and a kon of 1.2e+06 M⁻¹ s⁻¹.

The molecule B2 came in with a Kd of 0.22 nM, a koff of 9.5e-05 s⁻¹ and a kon of 430000 M⁻¹ s⁻¹.

Molecule B3 registered a Kd of 0.17 nM, a koff of 7.4e-05 s⁻¹ and a kon of 440000 M⁻¹ s⁻¹.

For the molecule B4, binding was characterised by a dissociation constant (Kd) of 6.6 nM, the koff was found to be 0.014 s⁻¹ and the kon is 2.2e+06 M⁻¹ s⁻¹.

The molecule B5 registered a Kd of 2.5 nM, a koff of 0.00062 s⁻¹ and a kon of 250000 M⁻¹ s⁻¹.

Take B6: the Kd came out at 0.63 nM, the koff was determined as 0.0012 s⁻¹ and the kon came out at 2e+06 M⁻¹ s⁻¹.

The target in the next assay is T5, His-tagged cynomolgus TIGIT (cynomolgus, UniProt A0A7N9I9V4 89-209).
T5 construct: SPR analyte; also called cynomolgus TIGIT protein; not shown: His tag
T5 sequence (A0A7N9I9V4 entry or part of it): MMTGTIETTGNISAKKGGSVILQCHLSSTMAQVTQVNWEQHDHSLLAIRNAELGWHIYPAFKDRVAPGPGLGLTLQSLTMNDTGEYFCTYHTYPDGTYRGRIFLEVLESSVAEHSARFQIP
The description is as above.
B1 showed a Kd of 280 nM, a koff of 0.044 s⁻¹ and a kon of 160000 M⁻¹ s⁻¹.

In the case of B2, the affinity, expressed as Kd, was 4.4 nM; the off-rate constant (koff) worked out at 0.0011 s⁻¹; the kon turned out to be 260000 M⁻¹ s⁻¹.

As for B3, the Kd worked out at 0.28 nM, the koff worked out at 6.1e-05 s⁻¹ and the kon worked out at 220000 M⁻¹ s⁻¹.

Take B4: the Kd was determined as 29 nM, the koff was 0.012 s⁻¹ and the kon is 420000 M⁻¹ s⁻¹.

In turn, B5 came in with a Kd of 3.4 nM, a koff of 0.00049 s⁻¹ and a kon of 140000 M⁻¹ s⁻¹.

Turning to B6, the Kd was determined as 47 nM, the koff was 0.063 s⁻¹ and the kon turned out to be 1.3e+06 M⁻¹ s⁻¹.

The next assay addresses T3, His-tagged human TIGIT. The assay is described as above. This is another data set of the same source.
Consider B1, for which the Kd worked out at 0.051 nM, the koff is 5.1e-05 s⁻¹ and the kon came out at 1e+06 M⁻¹ s⁻¹.

The next assay addresses T5, His-tagged cynomolgus TIGIT. The description is as above. The source holds these as a separate data set.
As to B1, the Kd stood at 470 nM, the koff amounted to 0.063 s⁻¹ and the kon worked out at 130000 M⁻¹ s⁻¹.

In a further assay the target is T2, human TIGIT expressed on CHO-K1 cells. Kind of assay: flow cytometry competition: biotinylated CD155-Fc on human TIGIT-CHO-K1 cells.
The term IC50 denotes the midpoint of a concentration-inhibition curve. Molecule B1 returned an IC50 of 0.81 nM.

Consider B2, for which the IC50 came out at 1.23 nM.

The molecule B3 gave an IC50 of 13.9 nM.

In the case of B4, the IC50 worked out at 0.82 nM.

Molecule B5 displayed an IC50 of 2.32 nM.

As for B6, the IC50 stood at 0.53 nM.

For the next assay the target is unchanged. The assay is described as above. This is another data set of the same source.
In turn, B1 yielded an IC50 of 0.62 nM.
